The results in this text go back to patent US20240270839A1.

In experiment [1] the target is recombinant 6xHis tagged human CLDN18.2 (human). The experiment is described as follows: SPR (Biacore); same values as Table 30.
For experiment [2], the target named is human CLDN18.2 as used in the Octet assay (human). The experiment can be described thus: Octet (BLI); format not described.
Experiment [3] addresses recombinant 6xHis tagged human CLDN18.2 (human). The experiment can be described thus: SPR (Biacore T200), His tagged CLDN18.2 amine-coupled on CM5, antibody as analyte, 1:1 fit. On the technique in general: In SPR one partner is held on a chip, and binding of the other changes the refractive index at the surface.

As usually defined, the Kd is the constant that tells how readily two partners part at equilibrium. As to IMAB362 (Zolbetuximab) (antibody), the dissociation constant Kd in experiment [1] turned out to be 115 nM; in experiment [2], 1.6 nM; in experiment [3], 115 nM.
